From the DeepSol protein solubility set come the findings set out here.

The data set in a line: soluble on expression in E. coli; label from the status in PepcDB or PDB records.
As to “MENTEKLKNSKEVIAYIAECFPNCFTLEGEAKPLKIGIFQDLADRLNDDPKVSKTQLRAALRQYTSSWRYLHGVKPGATRVDLDGNPCGELEEQHVEHAQAALAESKARVEARRKEQVKKVREEAKANKPKAKKPQQARRPQNAPKVEKKPVETRALAASELNVGNQVNVNMGKGNMAATIVEVNKEDVRVQLANGLQMVVKAEHLRA”, the “soluble on expression in E. coli” value is reported as “not soluble”.

For “MENVNRNHKNSVFSSLFSTPDVLRELYSAIEGIPIPPDIPIDINTLTDILYKGQINDVSFVINNRLVVLIEHQSTINANIPLRLLMYIARVYEKIINRKKLYQSKLEKIPLPEFIVLYNGEKEYSDFQELKLSDAFKDIDGLKLSGIEKIPLELIVQVYNINHGHNPEILKRSETLDSYSIFINKIREYQKEKDSLEKAARSAIIYCIKNNILKDYLEAHASEVLNMLLTEWNQDEAVEVAREEGREEGREEGHENGLKEGKMIIAKNLLEKGSTPEFVREITGLSPEEIEEIELND”, the “soluble on expression in E. coli” value is recorded as “soluble”.

In the case of “MEPKLSKDTIIAAAFSLLEKSPTLEQLSMRKVAKQLGVQAPAIYWYFKNKQALLQSMAEAIEEHFQEPALCGEWYSDLLAFMENYYDLYQQFPCAVAIEIQTVPAYPQRLRHLNQMMGILREAGFSPEMTHLAVTSLQHLLFGMIMDATEEKQLVSQVLNGDDYLKEQVLHMKQYVSDNELTYMEESIQFRHSIHQKSAFIQAVKTYLDGLQADNTSSSK”, the “soluble on expression in E. coli” value is listed as “soluble”.

Consider “MEPVRIGGPVGAGKTMLVEKLTRAMHRRFSIAVITNDIYTKEDAQFLIKHSVLPEDRIIGVETGGCPHTAIREDASMNFAAIDELKRRHPDVELILIESGGDNLAATFSPELVDFSIYVIDVAQGEKIPRKGGQGMIKSDLLVINKIDLAPYVGASLEVMERDAKAVRGAKPVIFTNLKEEIGLFDVVDWIEKQVLLAGLEE”, for which the “soluble on expression in E. coli” value is “not soluble”.

Regarding “MEQHPIKINKVQIRNLQIEDYAQLSQSFTRVYSDGSDVFWTHAQIKKLISIFPEGQIVTVVDDKIVGCALSIILDYDKVKNDHTYAQVTGKETFNTHNPEGNILYGIEVFIHPGYRGLRLARRMYEYRKELCETLNLKAIMFGGRIPNYHKYADKMRPKEYIARVRQREIYDPVLTFQLSNDFHVRKVMTNYLPNDEESKHYACLLQWDNIYYQPPTQEYINPKTTVRVGLVQWQMRSYKTLDDLFEQVEFFVDAVSDYKSDFVLFPEYFNAPLMSKFNDKGESQAIRGLAKYTDEIRDRFINLAISYNINIITGSMPYVKEDGLLYNVGFLCRRDGTYEMYEKMHVTPDEIKSWGLSGGKLLQTFDTDCAKVGVLICYDVEFPELSRLMADQGMQILFVPFLTDTQNAYSRVRVCAQARAIENECFVVIAGCVGNLPRVHNMDIQYAQSGVFTPCDFAFPTDGKRAEATPNTEMILVSDVDLDLLNALHTYGSVRNLKDRRNDVYEVRFKK”, the “soluble on expression in E. coli” value is listed as “not soluble”.

As to “MEQIGAALQQTLEPDAAIRKRGEEALRSLQSNPGYIIQILQLVVNEQQQIAPQIRIAAAVALKNFVKRNWGPAPEVEMGQEDEEQFRSMLLEAMFNTKSNVQEILSNALYLIAQRDFPEKWPDLVPYLSKFLNGADLNHLVASLASMEQIFRKFRFESKSAELWKELKKCLLSTQEPLTLLLRNMMEVGQRKDQLGADEIAQWLRVLLLIAKVYHSLCSQEIPEYFEDHLKDWMPHFLHLVQIDAPTQTSNSGEPTTLDELKHEICEIFTLYSQRYEEEISEFVPDIILAVWNLLKSTGPDTRYDTMVCAALEFLSMVSQRQYYEGHFTGEGVLKTLAENVCVQNLLLRQQDMELFEDEPLDYMKRDIEGTDVGTRRRGAIDLARGLCRRFEAQMLPCLGEIVQNLLGSGDWIKIDIVYSLITAIAVKTETAKSGVTATNPLVDINDFFITQVATHLNADVNQTPILKADALKFAVTFRKQLAPEHLMTAIKSADALLSSNTPILHKYAAYAIEKILLADSNKIFSAQNLPVSSILQNLVTAFDKDAKAQNSPYLIKAILRIIVILDDDTIRHADAIAVKLAQLVESATKNPADSVHTHFLFETICVLITKTRTIGASLDAQLLPLIEVIFREDLEDLIPYALQITGVLVSSCIARNSSIDQFSPFLPFLLSERLWARSANVPAALSVLEVILSVNAQRVVSENSGLILSHLARLLGSKTLDQYGFQLAATILPSIEHFEGSAMTFVLNTMFRRVQSSKTPKFMKLFIVFLCRFTIARSAQDLVQSCENIQTGMFGMLIEKVVCIDLPGLKQTTTGPEKRIIAIGMGNLLADVTQQLVGQYGILSYEVAMLLEAASASDRAVLSPEEEQASMYNAEGEFVNPFCRLSYAPKQPPVAANIANHKAYFAQAVLVRGPGNCPETLRSVPPEIVTYLQSIQQ”, the “soluble on expression in E. coli” value is given as “not soluble”.

On to “MEQLKCHVKQYAWGKYGEESEVARLFADGHESFQIDQKTPYAELWMGTHPDGPAQLKKCSTKLSTYLAKNPSPLTNNNSAKNIHLPFIMKVMSIRTTLSLQVHPTKEQARRLHEKDPIHYPDRNHKPELAYALTRFELLCGFRPAREILQNLQTFPSFRLLFGGDTYAKPLEDCIQQMKDLNSVDQKSTEFKDSRKYLEDCFRFMMVPERNDVHDLIAKLLSELDNGLRGAVEEVTVGVIRKMSVDFPNDIGIFSPLFLNHMILEPGQCCYYAAEELHAYLSGECVECVGCSNNTIRAAMTPKYIDRDALCSVLNYKMTEQKDYLVPENKLTECVDMYAPDCKDFQLHRIRVGTHQTVEEMMIPTLDCASIFVVVSGKGTLEEATIDNQLIGQYEVKRGDIFYIPPKHNIRFSSCSEPLEGYRTFSYEMGPDHDTRLVTPVQNAVPTITEKMFKLDADMEEAITAVV”, for which the “soluble on expression in E. coli” value is on record as “not soluble”.

“MEQQKKTTIVLFSGDYDKAMAAYIIANGAAAYDQEVTIFHTFWGLNALRKDEYVNVKKTFIEKVFGRMMPRGADKMGLSKMNFAGMGPKMIKGIMKKHNTMPLPDLIDLAKEQGIKLVACQMTVDLLGLKEEEIMEGVEFAGVGAYLADASDGNVNLFI”: the “soluble on expression in E. coli” value is reported as “not soluble”.

Take “MEQRTAEWFQARLGKVTASNIYNVLSKTAKGTPTSKYEEYKIKLMTERLTEEISQSYLTPAMQWGIEHEEDALKEYAIIYDTEVIKCGFIQHPTIEMAGASPDGLIGEEGLVEVKCPHSTKHLRFYMDGTIKPEYKAQMQFQMACTGRQWCDFVSYDPHFVGRSLRLRMKIKRIHRDEKQIEQINQAVEIFLEEIEQEMKQILTQAA”: the “soluble on expression in E. coli” value was “not soluble”.

For “MEQSVANLVDMRDVSFTRGNRCIFDNISLTVPRGKITAIMGPSGIGKTTLLRLIGGQIAPDHGEILFDGENIPAMSRSRLYTVRKRMSMLFQSGALFTDMNVFDNVAYPLREHTQLPAPLLHSTVMMKLEAVGLRGAAKLMPSELSGGMARRAALARAIALEPDLIMFDEPFVGQDPITMGVLVKLISELNSALGVTCVVVSHDVPEVLSIADHAWILADKKIVAHGSAQALQANPDPRVRQFLDGIADGPVPFRYPAGDYHADLLPGS”, the “soluble on expression in E. coli” value is given as “not soluble”.

As to “MEREKLELPENGKKLLLHSCCAPCSGEVMEAIVASGIDFSIFFYNPNIHPRKEYDLRKDENIRFAEKHGIPFIDADYDMDDWFKRAKGMEMEPERGIRCTMCFDMRFERTALYAYENGFDVISSSLGISRWKNMDQINDSGVRAAAQYPGITYWTYNWRKKGGSARMLEISKREKFYMQEYCGCAYSLRDTNKWRVEHGREKIRIGEKYYGDVTE”, the “soluble on expression in E. coli” value is listed as “not soluble”.

Regarding “MERITVTLGERSYPITIAAGLFNEPASFLPLKSGDQVMLVTNETLAPLYLDKVRGVLERAGVNVDSVILPDGEQYKSLTVLDTVFTALLKKPHGRDTTLVALGGGVIGDLTGFAAASYQRGVRFIQVPTTLLSQVDSSVGGKTAVNHPLGKNMIGAFYQPASVVVDLDCLKTLPARELTSGLAEVIKYGIILDADFFTWLEGNLDALLRLDGPAMAYCIRRCCELKAEVVAADEREAGLRALLNLGHTFGHAIEAEMGYGNWLHGEAVAAGIVMAARASERLGQFSSADTQRIIALLERAGLPVNGPCEMSAQDYLPHMLRDKKVLAGELRLVLPLAIGKSEVRGGVSHEVVLSAIADCQQA”, the “soluble on expression in E. coli” value was “not soluble”.

For the sequence “MERSRDFLLQAKRDLEQARLSLREGFFEWAAFAAQQAAEKAVKAVFQRLGAVAWGHSVAGLLEELAQKLPVPEALLDAASELDKAYIPSRYPDALPEGAPFQRYRRGEAERLLGHAEAVYAYCEGVLSQMDEGGAPPPHRGGA”, the “soluble on expression in E. coli” value is “soluble”.

Regarding “MERVNVVGAGLAGSEAAWTLLRLGVPVRLFEMRPKRMTPAHGTDRFAEIVCSNSLGGEGETNAKGLLQAEMRRAGSLVMEAADLARVPAGGALAVDREEFSGYITERLTGHPLLEVVREEVREIPPGITVLATGPLTSEALAEALKRRFGDHFLAYYDAASPIVLYESIDLTKCFRAGRYGQSADYLNCPMTEEEYRRFHQALLEAQRHTPHDWEKLEFFEACVPVEELARRGYQTLLFGPMKPVGLVDPRTGKEPFAVVQLRQEDKAGRMWSLVGFQTGLKWPEQKRLIQMIPGLENAEIVRYGVMHRNTYLNAPRLLGETLEFREAEGLYAAGVLAGVEGYLESAATGFLAGLNAARKALGLPPVAPPEESMLGGLVRYLATANPEGFQPMYANWGLVPPVEGRMGKKEKRQAMYRRGLEAFSAWLSGLNPPLPRPEAALV”, the “soluble on expression in E. coli” value was “soluble”.

Take “MERVTRKVQVTGGSTYIISLPPEWIKRNNIGKGSEVSVIDQGSDLVVTAPENSEPEITKKITLPGSYTGKPLQRLLTSTYISGFDTLVVVSKDKMTAEMRDDIKRFAKVVMGIEVIEETSRSIVLQNVLNASTFPLQKAIRRMSLNVSTMIEDTIKAIQDEDDDLVENIILRDDEVDRYQWYIYREVKIRCRDDRSNVYILVLSRILERIADHAVNICQAIKNRKGIKGKEKMVENLAYSKDVYNQAMETFYSKNFGEIDGIINRKSEITSRKYELLKILSYDSVLSSVAEEISRIGLYGTDIAELAMDLIMSDKDEFSV”: the “soluble on expression in E. coli” value is listed as “not soluble”.

In the case of “MERYPPIADHGLVGDLQTAALVSSQGVIDWFAAPRFDSPSIFASLLDHDGGGHFLLAPEHPEGTWRQLYYPDTGVVVTRFMSPDGVGEIIDYMPVLPGPTASDRHSLVRIVRSVRGTVRFRLVCRPRFDYLEHHHHHH”, the “soluble on expression in E. coli” value is “not soluble”.

Turning to “MESAIKKRRLEDSKLLGDLWQRLSHSRKKLMEIFHIILNQICLLPILESSCDNIHGFIEEFLQIFSSLLQEKRFLRDYDALFPVAEDISLLQQASSVLDETRTAYILQAVESAWEGVDRRKATDAKDPSVIEEPNGEPNGVTVTAEAVSQASSHPENSEEEECMGAAAAVGPAMCGVELDSLISQVKDLLPDLGEGFILACLEYYHYDPEQVINNILEERLAPTLSQLDRNLDREMNPDPTPLLTSRHNVFQNDEFDVFSRDSVDLSRVHKGKSTRKEENTRSLLNDKRAVAAQRQCYEQYSVVVEEVPLQPGESLPYHSVYYEDEYDDTYDGNQVGANDADSDDELISRRPFTIPQVLRTKVPREGQEEDDDDEEDDADEEAPKPDHFVQDPAVLREKAEARRMAFLAKKGYRHDSSTAVAGSPRGHGQSRETTQERRKKEANKATRANHNRRTMADRKRSKGMIPS”, the “soluble on expression in E. coli” value is “soluble”.

For “MESELIFHEGGCHCGKIKWRVKAARSVIAWSCNCSDCSMRGNVHFIVPSSNFELLDDSKDFITTYTFGTHTAKHTFCKVCGITSFYIPRSNPDGVAVTVKCVKSGTLAHIEVKSYDGQNWEMSHKKTGIASFSKE”, the “soluble on expression in E. coli” value is on record as “soluble”.

As to “MESIGLVIVSHSKHIAEGVVELISKVAKDVPITYVRGTEGGGIGTSFEQVDRVVSENPADTLLAFFDLGSAKMNLKMVTDFSDKSIIINRVPIVEGAYNAAALLQAGAELSVIQTQLAELEINK”, the “soluble on expression in E. coli” value is recorded as “not soluble”.
